# Positions count from the first letter of the chain named. Names may count otherwise.
# T1: human PVR (SPR of the humanized variants, Example 5) (human, UniProt P15151 21-343)
# T1 sequence: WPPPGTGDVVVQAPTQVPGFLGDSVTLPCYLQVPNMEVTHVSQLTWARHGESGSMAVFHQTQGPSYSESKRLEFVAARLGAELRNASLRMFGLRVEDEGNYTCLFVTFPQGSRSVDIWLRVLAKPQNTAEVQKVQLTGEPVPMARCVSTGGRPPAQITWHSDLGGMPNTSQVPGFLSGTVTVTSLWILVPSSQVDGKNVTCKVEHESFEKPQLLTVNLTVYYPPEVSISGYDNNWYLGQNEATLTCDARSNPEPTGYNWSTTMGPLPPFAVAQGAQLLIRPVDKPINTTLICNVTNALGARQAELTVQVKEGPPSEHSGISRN
# T2: PVR conjugated to Histidine tag (PVR-HIS, Sino Cat. no. 10109-H08H) (Homo sapiens (Human), UniProt P15151 21-343)
# T2 construct: Bought reagent; also called PVR-HIS tagged
# T2 sequence: T1 sequence
# T3: chlorocebus (African green monkey) PVR expressed on Vero cells (chlorocebus (African green monkey), UniProt P32506 21-417)
# T3 construct: whole, on cells; also called chlorocebus PVR
# T3 sequence (looked up): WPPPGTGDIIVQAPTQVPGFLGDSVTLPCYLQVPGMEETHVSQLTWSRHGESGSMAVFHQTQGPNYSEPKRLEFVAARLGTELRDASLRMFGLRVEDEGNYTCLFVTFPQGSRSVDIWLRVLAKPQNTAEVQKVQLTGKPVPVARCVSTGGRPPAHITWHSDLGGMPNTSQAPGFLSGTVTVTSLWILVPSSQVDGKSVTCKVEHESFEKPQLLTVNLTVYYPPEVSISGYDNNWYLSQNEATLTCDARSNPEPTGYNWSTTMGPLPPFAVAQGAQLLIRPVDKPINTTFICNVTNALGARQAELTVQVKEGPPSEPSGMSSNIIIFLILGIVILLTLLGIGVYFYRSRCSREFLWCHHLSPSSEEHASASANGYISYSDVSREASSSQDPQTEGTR
# B1: chimeric 5B9 N56E variant, IgG4(S241P) N56E_VH0/VK0 (antibody, name in Kabat numbering, V domains shown)
# VH: QVQLQQSGAELMKPGASVKISCKATGYTFSNYWIEWIKQRPGHGLEWIGEIFPGSGRINFNEKFKGKATFTADTSSDTTYMQLSSLTSADSAVYYCARTKIYGNSFDYWGQGTTLTVSP
# VL: DIMMTQSHKFMSTSVGDRVNITCKASQDVGTAVVWYQQKPGQSPKLLIYWASSRHEGVPDRFTGSGSGTDFTLTISNVQSEDLSDYFCQQYSRYPLTFGAGTKLELK
# notes: Human IgG4 (S241P) constant region; also called chimeric N56E mutated parental antibody
# B2: VH0/Vκ0 Ala56 (antibody, V domains shown)
# VH: B1 VH
# VL: B1 VL with E56A
# notes: chimeric 5B9 N56 substitution variant; also called N56A
# B3: VH0/Vκ0 Ser56 (antibody, V domains shown)
# VH: B1 VH
# VL: B1 VL with E56S
# notes: chimeric 5B9 N56 substitution variant; also called N56S
# B4: VH0/Vκ0 Thr56 (antibody, V domains shown)
# VH: B1 VH
# VL: B1 VL with E56T
# notes: chimeric 5B9 N56 substitution variant; also called N56T
# B5: chimeric 5B9 N56D variant, IgG4 (S241P) (antibody, name in Kabat numbering, V domains shown)
# VH: B1 VH
# VL: B1 VL with E56D
# notes: Human IgG4 (S241P) constant region
# Target: T1, human PVR (SPR of the humanized …)
# Experiment: SPR
row,Kd [nM],Binder
1,5.54,B1

# Target: T1, human PVR (SPR of the humanized …)
# Experiment: SPR; relative to N56E VH0/Vκ0
row,Relative KD,Binder
1,1,B1

# Target: human poliovirus receptor (PVR, CD155) expressed on cells (human) (UniProt P15151)
# Experiment: flow cytometry, binding to PVR-expressing HEK 293 cells
row,EC50 [nM],Binder
1,0.79,B1

# Target: T2, PVR conjugated to Histidine tag …
# Experiment: SPR (Biacore T200); KD divided by the KD of VH0/Vκ0 WT
# Method: FIGS. 1A-1B. Affinity and competition assays of N56 substitutions. FIG. 1A. […] Biacore assay showing relative and absolute affinity of the N56 substitutions (hIgG4 variants) to PVR-HIS tagged (Sino Cat. no. 10109-H08H). Affinity shift of >25% were considered significant.
# (§1) Seven chimeric variants were generated by introducing a point mutation at residue asparagine N56. […] Binding was tested for the analyte PVR conjugated to Histidine tag (PVR-HIS, Sino Cat. no. 10109-H08H). Dilution range: Five point two-fold dilution from 50 nM to 3.125 nM. Conditions used: Instrument: Biacore T200 (serial no. 1909913) running Biacore T200 Evaluation Software V2.0.1. Running buffer: HBS-P+, 300 mM NaCl, 1 mg/ml BSA. Flow rate: […]. Association: 350 s, Dissociation: 800 s. Regeneration: 10 mM glycine pH 1.5. Analysis: 1:1 binding.
row,Relative KD,Binder
1,0.89,B2
2,1.05,B3
3,0.69,B1
4,0.86,B4
5,0.64,B5

# Target: T3, chlorocebus (African green monkey) PVR …
# Experiment: flow cytometry, 10 ug/ml antibody on Vero cells; MFI divided by the MFI of K0
# Method: FIGS. 2A-2B. […] To assess maximal binding, saturating dose (10 ug/ml) of the N56 variant monoclonal antibodies (shown at the X axis) were used to stain PVR-expressing cells, and mean fluorescence intensity (MFI) values were determined by FACS analysis. […] (FIG. 2A) NCI-H1975 (human lung) cells and (FIG. 2B) Vero (African green monkey kidney) cells. Affinity shifts of >25% were considered significant.
# The binding of the N56 substitution variant antibodies to cell bound PVR of human (protein id: Q92692) and chlorocebus (African green monkey, protein id: UniProtKB—P32506) was examined. FIG. 2A depicts the relative binding of all variants, which were added in saturating concentration (10 ug/ml), to NCI-H1975 cells expressing human PVR. FIG. 2B depicts the relative binding of all variants, which were added in saturating concentration (10 ug/ml), to Vero cells expressing chlorocebus PVR. […] Cell binding of the Abs was analyzed by FACS.
row,Fold change MFI,Binder
1,1.2,B2
2,0.73,B3
3,1.31,B1
4,1.19,B4
5,1.27,B5

# Target: T2, PVR conjugated to Histidine tag …
# Experiment: SPR (Biacore T200), antibody captured on Protein A chip, PVR-HIS as analyte, 1:1 binding
# Method: as §1
Kd [nM],koff [s⁻¹],kon [M⁻¹ s⁻¹],Binder
4.57,0.000701,154000,B2
4.61,0.000701,152000,B3
3.55,0.000653,184000,B1
4.4,0.000688,156000,B4
3.27,0.000637,195000,B5

# From US20260152568A1 (NECTIN THERAPEUTICS, published 2026)
